Numbering of substitutions follows the chain as printed. Like-named read-outs stand apart in the source and are kept apart here.

Assay [1] addresses HIV-1 Env of strain CAP45.2.00.G3 (HIV-1).
Assay [2] addresses HIV-1 Env of strain CAP210.2.00.E8 (HIV-1).
Assay [3] deals with HIV-1 Env of strain SC422661.8 (HIV-1).
Assay [4] deals with HIV-1 Env of strain AC10.0.29 (HIV-1).
The target in assay [5] is HIV-1 Env of strain Du172.17 (HIV-1).
In assay [6] the target is HIV-1 Env of strain TRO.11 (HIV-1).
For assay [7], the target named is Env (gp120) of HIV-1 strain TRO.11 (HIV-1).
The target of assay [8] is Env (gp120) of HIV-1 strain AC10.0.29 (HIV-1).
The target of assay [9] is Env (gp120) of HIV-1 strain CAP210.2.00.E8 (HIV-1).
For assay [10], the target named is Env (gp120) of HIV-1 strain SC422661.8 (HIV-1).
In assay [11] the target is Env (gp120) of HIV-1 strain Du172.17 (HIV-1).
Assay [12] addresses Env (gp120) of HIV-1 strain CAP45.2.00.G3 (HIV-1).
In assay [13] the target is Env (gp120) of HIV-1 strain QH0692.42 (HIV-1).
In assay [14] the target is Env (gp120) of HIV-1 strain ZM214M.PL15 (HIV-1).
Assay [15] deals with Env (gp120) of HIV-1 strain TRO.11 (HIV-1). This is another data set of the same source.
Assay [16] concerns the target Env (gp120) of HIV-1 strain AC10.0.29 (HIV-1). This is another data set of the same source.
Assay [17] addresses Env (gp120) of HIV-1 strain T257-31 (HIV-1).
In assay [18] the target is Env (gp120) of HIV-1 strain SC422661.8 (HIV-1). This is another data set of the same source.
Assay [19] concerns the target Env (gp120) of HIV-1 strain CAP45.2.00.G3 (HIV-1). The source holds these as a separate data set.
For assay [20], the target named is HIV-1 Env of strain CAP45.2.00.G3 (HIV-1). The source holds these as a separate data set.
The target in assay [21] is HIV-1 Env of strain QH0692.42 (HIV-1).
For assay [22], the target named is HIV-1 Env of strain SC422661.8 (HIV-1). This is another data set of the same source.
Assay [23] concerns the target HIV-1 Env of strain AC10.0.29 (HIV-1). The source holds these as a separate data set.
The target of assay [24] is HIV-1 Env of strain ZM214M.PL15.11 (HIV-1).
Assay [25] deals with HIV-1 Env of strain TRO.11 (HIV-1). This is another data set of the same source.
In assay [26] the target is HIV-1 Env of strain T257-31 (HIV-1).
Assay [27] deals with Env (gp120) of HIV-1 strain 3016.v5.c45 (HIV-1).
In assay [28] the target is Env (gp120) of HIV-1 strain C2101.c01 (HIV-1).

For the molecule 3BNC55 T54W IgG (antibody), the In vitro neutralization IC50 in [1] was greater than 50 µg/mL; in [2], greater than 50 µg/mL; in [3], 0.6 µg/mL; in [4], greater than 50 µg/mL; in assay [5], greater than 50 µg/mL; in assay [6] it was greater than 50 µg/mL.
In the case of 3BNC60 T54W IgG (antibody), the In vitro neutralization IC50 in [1] was found to be 19 µg/mL; in assay [2], 5 µg/mL; in assay [3], 0.1 µg/mL; in assay [4], 3.1 µg/mL; in assay [5], 0.04 µg/mL; in [6], 0.06 µg/mL.
As to 3BNC117 T54W IgG (antibody), the In vitro neutralization IC50 in assay [1] was determined as 23 µg/mL; in assay [2] it was 2.8 µg/mL; in [3] it was 0.07 µg/mL; in [4] it was 2.8 µg/mL; in assay [5], 0.9 µg/mL; in [6], 0.6 µg/mL.
With 12A12 Y54W IgG (antibody), the In vitro neutralization IC50 in assay [1] is 0.2 µg/mL; in assay [2] it was greater than 50 µg/mL; in assay [3] it was 0.2 µg/mL; in assay [4], 0.5 µg/mL; in [5] it was 0.1 µg/mL; in assay [6], 0.2 µg/mL.
Regarding NIH45-46 G54H IgG (antibody), the neutralization IC50 in [7] is 0.2 µg/mL; in assay [8] it was 0.6 µg/mL; in assay [9], greater than 50 µg/mL; in assay [10], 0.09 µg/mL; in assay [11] it was greater than 50 µg/mL; in assay [12], greater than 50 µg/mL.
NIH45-46 G54I IgG (antibody): the neutralization IC50 was 10 µg/mL in assay [7]; 8.6 µg/mL in assay [8]; greater than 50 µg/mL in assay [9]; 0.1 µg/mL in assay [10]; greater than 50 µg/mL in assay [11]; greater than 50 µg/mL in assay [12].
Turning to NIH45-46 G54L IgG (antibody), the neutralization IC50 in [7] is 0.3 µg/mL; in assay [8], 1.7 µg/mL; in [9], greater than 50 µg/mL; in [10], 0.1 µg/mL; in assay [11], greater than 50 µg/mL; in assay [12], greater than 50 µg/mL.
In the case of NIH45-46 G54M IgG (antibody), the neutralization IC50 in assay [7] was 0.3 µg/mL; in [8] it was 1.5 µg/mL; in assay [9], greater than 50 µg/mL; in assay [10], 0.06 µg/mL; in assay [11], greater than 50 µg/mL; in assay [12] it was greater than 50 µg/mL.
As to NIH45-46 Y99dA (antibody), the neutralization IC50 in assay [13] was 2.1 µg/mL; in assay [14], 1.1 µg/mL; in [15] it was greater than 50 µg/mL; in assay [16] it was 4.4 µg/mL; in assay [17], 2.4 µg/mL; in assay [18], 0.08 µg/mL. In addition, the neutralization IC50 in assay [19] was greater than 50 µg/mL.
Regarding “NIH45-46 heavy chain paired with VRC01 light chain, IgG (antibody)”, the In vitro neutralization IC50 is 2.1 µg/mL in assay [20]; 0.9 µg/mL in assay [21]; 0.2 µg/mL in assay [22]; 1 µg/mL in assay [23]; 0.6 µg/mL in assay [24]; 0.3 µg/mL in [25]. The molecule further had an In vitro neutralization IC50 in assay [26] of 0.6 µg/mL.
For the molecule NIH45-46 Δ99a-99d (antibody), the neutralization IC50 in [13] was 3.7 µg/mL; in [14] it was 2.2 µg/mL; in assay [15] it was greater than 50 µg/mL; in [16], 13 µg/mL; in [17] it was 7 µg/mL; in [18], 1.4 µg/mL. In assay [19], this molecule returned a neutralization IC50 greater than 50 µg/mL.
On to VRC01 (antibody), for which the neutralization IC50 came to 0.16 µg/mL in assay [27] and 0.36 µg/mL in [28].
Consider VRC01 IgG (antibody), for which the In vitro neutralization IC50 amounted to 1.8 µg/mL in assay [20]; 0.7 µg/mL in assay [21]; 0.2 µg/mL in [22]; 0.8 µg/mL in assay [23]; 0.8 µg/mL in assay [24]; 0.5 µg/mL in assay [25].
In the case of “VRC01 heavy chain paired with NIH45-46 light chain, IgG (antibody)”, the In vitro neutralization IC50 was greater than 50 µg/mL in assay [20]; 1.2 µg/mL in assay [21]; 0.4 µg/mL in [22]; 4.5 µg/mL in assay [23]; 1.8 µg/mL in assay [24]; 24 µg/mL in assay [25]. Moreover, the In vitro neutralization IC50 in assay [26] was determined as 15 µg/mL.

B1: 3BNC55 IgG (wild type) (antibody, V domains shown)
VH: QVQLVQSGTAVKRPGASVRVSCQASGYTFTDYFIYWWRQAPGQGLEWLGWINPLTSQPSYPSRFQGRLTLTRDTFDEMLYMDLRGLRSDDTGIYFCARRHSDYCDFDIWGSGTQIIVSS
VL: DIQMTQSPSSLSASVGDKVTITCQTSAGYLNWYQQRRGRAPKLLMYDGSRLVTGVPSRFSGRRWGTQYNLTIGSLQPEDIATYYCQVYEFFGPGTRLDLKS
As to B1, the In vitro neutralization IC50 in assay [1] was greater than 50 µg/mL; in assay [2] it was greater than 50 µg/mL; in assay [3], 0.3 µg/mL; in assay [4] it was greater than 50 µg/mL; in assay [5] it was 2 µg/mL; in [6], 7.6 µg/mL.

B2: 12A12 IgG (wild type) (antibody, V domains shown)
VH: SQHLVQSGTQVKKPGASVRISCQASGYSFTDYVLHWWRQAPGQGLEWMGWIKPVYGARNYARRFQGRINFDRDIYREIAFMDLSGLRSDDTALYFCARDGSGDDTSWHLDPWGQGTLVIVSA
VL: DIQMTQSPSSLSASVGDRVTITCQAGQGIGSSLQWYQQKPGKAPKLLVHGASNLHRGVPSRFSGSGFHTTFSLTISGLQRDDFATYFCAVLEFFGPGTKVEIKR
On to B2, for which the In vitro neutralization IC50 was 0.4 µg/mL in [1]; greater than 50 µg/mL in [2]; 0.2 µg/mL in assay [3]; 0.6 µg/mL in assay [4]; 0.2 µg/mL in [5]; 0.3 µg/mL in assay [6].

B3: 3BNC60 IgG (wild type) (antibody)
heavy: QVHLSQSGAAVTKPGASVRVSCEASGYKISDHFIHWWRQAPGQGLQWVGWINPKTGQPNNPRQFQGRVSLTRQASWDFDTYSFYMDLKAVRSDDTAIYFCARQRSDFWDFDVWGSGTQVTVSS
light: DIQMTQSPSSLSARVGDTVTITCQANGYLNWYQQRRGKAPKLLIYDGSKLERGVPARFSGRRWGQEYNLTINNLQPEDVATYFCQVYEFIVPGTRLDLKRTVA
Consider B3, for which the In vitro neutralization IC50 in assay [1] was determined as 10 µg/mL; in [2] it was 4.7 µg/mL; in [3] it was 0.1 µg/mL; in [4], 13 µg/mL; in assay [5] it was 0.05 µg/mL; in assay [6], 0.07 µg/mL.

B4: 3BNC117 IgG (wild type) (antibody)
heavy: B3 heavy with H3Q, S5L, K28N, S30R, H32Y, Q73H, Y81F, V90L, I97V, F107Y
light: B3 light with R14S, A56S, V79I, I90V
For the molecule B4, the In vitro neutralization IC50 in assay [1] is 16 µg/mL; in assay [2] it was 11 µg/mL; in assay [3], 0.07 µg/mL; in assay [4], 6.5 µg/mL; in assay [5], 0.04 µg/mL; in assay [6], 0.6 µg/mL.
